Reference: paper PMC8558838 (The Journal of Experimental Medicine, 2021)

B1: full-length mouse BTLA-EGFP, on cells [mouse] / full-length WT mouse HVEM-mCherry, on cells [mouse] (parent complex)
chain 1: EKATKRNDEECPVQLTITRNSKQSARTGELFKIQCPVKYCVHRPNVTWCKHNGTICVPLEVSPQLYTSWEENQSVPVFVLHFKPIHLSDNGSYSCSTNFNSQVINSHSVTIHVRERTQNSSEHPLITVSDIPDATNASGPSTMEERPGRTWLLYTLLPLGALLLLLACVCLLCFLKRIQGKEKKPSDLAGRDTNLVDIPASSRTNHQALPSGTGIYDNDPWSSMQDESELTISLQSERNNQGIVYASLNHCVIGRNPRQENNMQEAPTEYASICVRS
chain 2: QPSCRQEEFLVGDECCPMCNPGYHVKQVCSEHTGTVCAPCPPQTYTAHANGLSKCLPCGVCDPDMGLLTWQECSSWKDTVCRCIPGYFCENQDGSHCSTCLQHTTCPPGQRVEKRGTHDQDTVCADCLTGTFSLGGTQEECLPWTNCSAFQQEVRRGTNSTDTTCSSQVVYYVVSILLPLVIVGAGIAGFLICTRRHLHTSSVAKELEPFQEQQENTIRFPVTEVGFAETEEETASN
B2: full-length mouse LIGHT, on cells (mLIGHT-IRES-EGFP) [mouse] / full-length WT mouse HVEM-mCherry, on cells [mouse] (parent complex)
chain 1: MESVVQPSVFVVDGQTDIPFRRLEQNHRRRRCGTVQVSLALVLLLGAGLATQGWFLLRLHQRLGDIVAHLPDGGKGSWEKLIQDQRSHQANPAAHLTGANASLIGIGGPLLWETRLGLAFLRGLTYHDGALVTMEPGYYYVYSKVQLSGVGCPQGLANGLPITHGLYKRTSRYPKELELLVSRRSPCGRANSSRVWWDSSFLGGVVHLEAGEEVVVRVPGNRLVRPRDGTRSYFGAFMV
chain 2: B1 chain 2

Variants of: B1
Assay: flow cytometry, cell–cell method

| Variant | ratio to parent |
| --- | --- |
| chain 2 V36A | 1 |
| chain 2 V36D | 0.8 |
| chain 2 P17A | 0.4 |
| chain 2 S30A | 1 |
| chain 2 S30H | 0.9 |
| chain 2 T35A | 0.5 |
| chain 2 T99A | 1 |
| chain 2 T99D | 0.9 |
| chain 2 E8R | 0.7 |
| chain 2 M18A | 1.2 |
| chain 2 K26A | 0.9 |
| chain 2 G51D | 1 |
| chain 2 K77D | 1.2 |
| chain 2 S98A | 1 |
| chain 2 G34A | 1 |
| chain 2 G34R | 0.1 |
| chain 2 R5D | 1.2 |
| chain 2 R5A | 0.7 |
| chain 2 N50D | 0.9 |
| chain 2 L56D | 1.1 |

The remaining lines, values ahead:

| ratio to parent | Variant |
| --- | --- |
| 0.8 | chain 2 S30D |
| 0.8 | chain 2 L52D |
| 0.1 | chain 2 T35D |
| 1 | chain 2 E8A |
| 1 | chain 2 K26D |
| 1 | chain 2 S98D |

Variants of: B2
Assay: flow cytometry, cell–cell method

| Variant | ratio to parent |
| --- | --- |
| chain 2 S30H | 1.1 |
| chain 2 M18D | 0.9 |
| chain 2 L56A | 0.8 |
| chain 2 T99D | 0.7 |
| chain 2 A38W | 0.9 |
| chain 2 G34R | 0.6 |
| chain 2 G34D | 0.9 |
| chain 2 G34A | 1.2 |
| chain 2 K26A | 1 |
| chain 2 A49D | 1.2 |
| chain 2 S98D | 0.8 |
| chain 2 S98A | 0.9 |
| chain 2 E8R | 1 |
| chain 2 V36A | 1 |
| chain 2 V36D | 0.9 |
| chain 2 T35D | 0.3 |
| chain 2 K77A | 1.8 |
| chain 2 K77D | 1.4 |
| chain 2 G51D | 0.4 |
| chain 2 N50D | 0.5 |

The remaining lines, values ahead:

| ratio to parent | Variant |
| --- | --- |
| 0.8 | chain 2 S30D |
| 1 | chain 2 S30A |
| 0.4 | chain 2 L52D |
| 0.7 | chain 2 L52A |
| 0.4 | chain 2 L52R |
| 0.7 | chain 2 H96D |
| 1.2 | chain 2 M18A |
| 0.6 | chain 2 L56D |
| 0.8 | chain 2 T99A |
| 1.1 | chain 2 A38D |
| 1.1 | chain 2 K26D |
| 0.8 | chain 2 P17A |
| 0.5 | chain 2 R5A |
| 1.1 | chain 2 R5D |
| 0.9 | chain 2 E8A |
| 0.8 | chain 2 H48D |
| 1 | chain 2 H48R |
| 0.7 | chain 2 T35A |
| 0.5 | chain 2 N50A |

Variants of: B2
Assay: flow cytometry, cell–cell method; read off a plot

| Variant | ratio to parent |
| --- | --- |
| chain 2 H48D, chain 2 L52R | ~0.37 |
| chain 2 H48D, chain 2 L52D | ~0.25 |
| chain 2 G34D, chain 2 V36D | ~0.87 |
| chain 2 G34R, chain 2 V36A | ~1.2 |
| chain 2 H48A, chain 2 L52A | ~0.28 |
| chain 2 H48R, chain 2 L52A | ~0.3 |

Next, values leading:

| ratio to parent | Variant |
| --- | --- |
| ~0.24 | chain 2 H48D, chain 2 L52A |
| ~1.1 | chain 2 G34A, chain 2 V36D |
| ~1.3 | chain 2 G34D, chain 2 V36R |
| ~1.1 | chain 2 G34D, chain 2 V36A |
